In patent US20030082746:
Numbering of substitutions follows the chain as printed.

Experiments:
[1] = target: T1, pro-transglutaminase of S. mobaraense, Gly-Pro-Lys type modified variant of the pro-structure part
T1 chain: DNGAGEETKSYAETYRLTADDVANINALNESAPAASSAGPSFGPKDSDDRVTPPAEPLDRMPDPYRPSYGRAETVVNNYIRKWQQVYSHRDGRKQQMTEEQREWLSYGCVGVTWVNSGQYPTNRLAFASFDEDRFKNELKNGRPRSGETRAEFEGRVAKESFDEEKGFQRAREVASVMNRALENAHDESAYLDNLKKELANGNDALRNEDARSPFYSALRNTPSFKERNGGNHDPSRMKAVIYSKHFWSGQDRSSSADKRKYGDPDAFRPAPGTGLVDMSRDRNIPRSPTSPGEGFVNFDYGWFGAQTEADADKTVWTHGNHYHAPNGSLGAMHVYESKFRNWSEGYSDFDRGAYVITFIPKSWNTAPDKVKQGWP

[2] = target: T2, pro-transglutaminase of S. mobaraense, Phe-Arg-Ala-Pro deletion type and Arg insertion-variant of the pro-structure part
T2 chain: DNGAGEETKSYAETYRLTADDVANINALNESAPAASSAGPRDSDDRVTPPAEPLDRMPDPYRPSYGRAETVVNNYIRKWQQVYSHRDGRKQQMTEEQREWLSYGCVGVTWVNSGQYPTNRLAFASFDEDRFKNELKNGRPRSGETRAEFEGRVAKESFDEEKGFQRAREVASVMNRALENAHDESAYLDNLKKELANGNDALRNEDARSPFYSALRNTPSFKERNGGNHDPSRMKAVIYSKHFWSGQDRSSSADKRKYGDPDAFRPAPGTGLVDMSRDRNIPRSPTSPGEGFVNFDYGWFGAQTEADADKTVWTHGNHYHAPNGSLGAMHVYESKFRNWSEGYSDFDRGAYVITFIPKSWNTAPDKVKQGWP

[3] = target: T3, pro-transglutaminase of S. mobaraense, Ala-Pro deletion type of the pro-structure part
T3 chain: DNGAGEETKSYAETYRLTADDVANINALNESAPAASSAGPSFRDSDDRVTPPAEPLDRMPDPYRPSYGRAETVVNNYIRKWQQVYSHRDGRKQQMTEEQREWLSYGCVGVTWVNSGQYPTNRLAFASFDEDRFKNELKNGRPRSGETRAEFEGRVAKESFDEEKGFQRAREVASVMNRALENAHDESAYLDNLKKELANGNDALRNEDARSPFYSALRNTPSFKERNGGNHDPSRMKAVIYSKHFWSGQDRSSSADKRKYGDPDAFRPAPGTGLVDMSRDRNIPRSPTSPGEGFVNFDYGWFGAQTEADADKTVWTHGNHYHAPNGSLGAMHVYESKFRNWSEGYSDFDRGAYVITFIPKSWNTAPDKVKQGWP

[4] = target: T4, pro-transglutaminase of S. mobaraense, Asp-Asn-Gly-Ala-Gly-Glu deletion type of the pro-structure part
T4 chain: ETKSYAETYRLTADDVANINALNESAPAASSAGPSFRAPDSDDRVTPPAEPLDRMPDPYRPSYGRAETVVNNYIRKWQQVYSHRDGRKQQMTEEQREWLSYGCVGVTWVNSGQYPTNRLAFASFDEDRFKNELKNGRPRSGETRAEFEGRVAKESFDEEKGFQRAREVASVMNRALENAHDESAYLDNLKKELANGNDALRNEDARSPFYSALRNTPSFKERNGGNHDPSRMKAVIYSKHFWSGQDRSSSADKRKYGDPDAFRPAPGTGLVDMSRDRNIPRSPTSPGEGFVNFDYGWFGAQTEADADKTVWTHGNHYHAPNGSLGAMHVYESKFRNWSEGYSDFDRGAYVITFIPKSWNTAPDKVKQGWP

[5] = target: T5, pro-transglutaminase derived from S. mobaraense IFO13819 (transglutaminase having the pro-structure part)
T5 chain: T1 chain with G43R, P44A, K45P

[6] = target: T6, pro-transglutaminase of S. mobaraense, Phe-Arg-Ala-Pro deletion type and Lys insertion-variant of the pro-structure part
T6 chain: T2 chain with R41K

[7] = target: T7, pro-transglutaminase of S. mobaraense, Gly-Pro-Arg type modified variant of the pro-structure part
T7 chain: T1 chain with K45R

[8] = target: T8, pro-transglutaminase of S. mobaraense, Asp deletion type of the pro-structure part
T8 chain: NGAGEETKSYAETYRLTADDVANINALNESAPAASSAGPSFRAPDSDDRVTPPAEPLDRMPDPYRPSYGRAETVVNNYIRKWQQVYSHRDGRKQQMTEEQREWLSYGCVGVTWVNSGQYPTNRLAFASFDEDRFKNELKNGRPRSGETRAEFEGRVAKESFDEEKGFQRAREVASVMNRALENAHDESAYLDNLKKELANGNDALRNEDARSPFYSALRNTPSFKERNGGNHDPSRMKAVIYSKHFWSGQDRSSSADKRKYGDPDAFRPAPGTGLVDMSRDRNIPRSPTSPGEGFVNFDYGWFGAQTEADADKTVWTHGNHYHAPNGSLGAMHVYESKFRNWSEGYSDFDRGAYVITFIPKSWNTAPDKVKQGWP

[9] = target: T9, pro-transglutaminase of S. mobaraense, Phe-Arg-Ala-Pro deletion type of the pro-structure part
T9 chain: T2 chain with R41S

B1: SAMP45, serine protease produced by Streptomyces albogriseolus (protein)
chain: NGENSTAAGSSASATALKGKHRVTLITGDRVALDAKGRVVGLEPAEGREHIPVQIRRSDGHTLVVPADAARLVASGKLDQRLFDVTELNKAATRTAHRGGLKVIVGYRGAAKAAKADVRDAGTVRRTLTSLNADAVQTPQEAGAELWEAVTDGDRTASGVARVWLDGVRKASLDTSVGQIGTPKAWEAGYDGKGVKIAVLDTGVDATHPDLKGQVTASKNFTSAPTTGDVVGHGTHVASIAAGTGAQSKGTYKGVAPGAKILNGKVLDDAGFGDDSGILAGMEWAAAQGADIVNMSLGGMDTPETDPLEAAVDKLSAEKGILFAIAAGNEGPQSIGSPGSADSALTVGAVDDKDKLADFSSTGPRLGDGAVKPDLTAPGVDITAASAKGNDIAKEVGEKPAGYMTISGTSMATPHVAGAAALLKQQHPEWKYAELKGALTASTKDGKYTPFEQGSGRVQVDKAITQTVIAEPVSLSFGVQQWPHADDKPVTKKLTYRNLGTEDVTLKLTSTATGPKGKAAPAGFFTLGASTLTVPANGTASVDVTADTRLGGAVDGTYSAYVVATGAGQSVRTAAAVEREVESYNVTLKVLDRSGKATANYMAYLSGLTGLGKDRSYAPYEADGAVSVRVPKGGYVLDASVLVGADPETWRGADWLAQPKLDVTRNTTVTVDARKAKPVKVTVPGKAAKAQFASADYTIETNDSAVSYGWWLENYSGFRSAHLGPQITNGTLSQQWNTHFSNGAKAQYTAISGGKVKKLATGYTRAFKAKEFATVQVGMGAAASGKKGAVTAFGWLPGSSGASGFSQEQKLPSTRTLYLSTVNGVTWDLDFEQLGGVDNEGWPIYDAVYTIGVGKTYKGGKTYKETVNTAVFGPRLTSSYGVFRDGNSIYGVIPLFADGKGHAGSSEFSSAVTTLYRNGKKVGSNNDPLFGEEGFTVPSGDAAYRLTTSVKRSAKVAAASTRIDASWTFRSKKTSGEKQLPVSSARFAAVTGLDSKVAAGKKATFPVVVEGAAQGKNLKSLAVYVSYNGGKTWKKTTVTKGKITVKNPAKGKAISFRAKITDKKGNASLITIHNAYYGK
[1]
  N-terminal amino acid sequence of the cleaved transglutaminase: the sequence identical to that of the naturally occurring mature transglutaminase was confirmed for C. glutamicum ATCC13869 harboring pVSS1 and pPKSPTG11, or pVSS1 and pPKSPTG12, which had Asp as the N-terminal amino acid residue
[2]
  N-terminal amino acid sequence of the cleaved transglutaminase: Ser-Ala-Gly-Pro-Lys (SEQ ID NO: 69) or Ser-Ala-Gly-Pro-Arg (SEQ ID NO: 70) was found to be added to the sequence of the naturally occurring mature transglutaminase for C. glutamicum ATCC13869 harboring pVSS1 and pPKSPTG13, or pVSS1 and pPKSPTG14
[3]
  N-terminal amino acid sequence of the cleaved transglutaminase: Phe-Arg was added to the N-terminal of the naturally occurring mature transglutaminase shown in SEQ ID NO: 5 in the transformant harboring pPKSPTG1 AP
[4]
  N-terminal amino acid sequence of the cleaved transglutaminase: Phe-Arg-Ala-Pro was added to the naturally occurring mature transglutaminase in the transformant harboring pPKSPTG1 D or pPKSPTG1 DNGAGE
[5]
  N-terminal amino acid sequence of the cleaved transglutaminase: it had the structure in which the 4 C-terminal amino acids of Phe-Arg-Ala-Pro from the pro-structure part was added to the naturally occurring mature transglutaminase
[6]
  N-terminal amino acid sequence of the cleaved transglutaminase: Ser-Ala-Gly-Pro-Lys (SEQ ID NO: 69) or Ser-Ala-Gly-Pro-Arg (SEQ ID NO: 70) was found to be added to the sequence of the naturally occurring mature transglutaminase for C. glutamicum ATCC13869 harboring pVSS1 and pPKSPTG13, or pVSS1 and pPKSPTG14
[7]
  N-terminal amino acid sequence of the cleaved transglutaminase: the sequence identical to that of the naturally occurring mature transglutaminase was confirmed for C. glutamicum ATCC13869 harboring pVSS1 and pPKSPTG11, or pVSS1 and pPKSPTG12, which had Asp as the N-terminal amino acid residue
[8]
  N-terminal amino acid sequence of the cleaved transglutaminase: Phe-Arg-Ala-Pro was added to the naturally occurring mature transglutaminase in the transformant harboring pPKSPTG1 D or pPKSPTG1 DNGAGE
[9]
  N-terminal amino acid sequence of the cleaved transglutaminase: Ser-Ala-Gly-Pro-Ser was added to the N-terminal of the naturally occurring mature transglutaminase in the transformant harboring pPKSPTG1 FRAP
